For one molecule, binding result and Kd results are on record in patent US20160152725A1 (Memorial Sloan Kettering, published 2016).

The target in one experiment is T1, HLA-A2/CDR2 (…) tetramer (human).
T1 construct: Peptide from cerebellar degeneration-related protein 2; also called negative control (HLA-A2-CDR2) tetramer; irrelevant HLA-A2/CDR2-derived peptide
Description: flow cytometry of scFv-displaying yeast, negative control HLA-A2-CDR2 tetramer (y, Binding) against scFv expression (x).

Experiment [1] deals with T2, HLA-A2/pp65 (…) on T2 cells (human; human cytomegalovirus).
T2 construct: also called T2 cells loaded with control peptide pp65
Description: flow cytometry on peptide-loaded T2 cells.

For experiment [2], the target named is T3, biotinylated HLA-A2/WT1126 (…) monomer (human, biotin at a specific biotinylation site at the C-terminus).
T3 construct: also called HLA-A2-WT1 monomer; WT1126/HLA-A2
Description: SPR (Biacore).
Description: (§1) Kinetics and affinities of various antibodies and WT1₁₂₆/HLA-A2 were analyzed by surface plasmon resonance technology using a Biacore T100 instrument (GE healthcare). Biotinylated WT1₁₂₆/HLA-A2 was captured by streptavidin-fusion protein on a sensor chip (CM5). A control reference surface was prepared for nonspecific binding and refractive index changes. For analysis of the kinetics of interactions, varying concentrations of antibodies were injected at flow rate of 30 μl/min using a running buffer containing 10 mM HEPES, 150 mM NaCl, 3 mM EDTA, and 0.05% Surfactant P-20 (pH 7.4). The association and dissociation phase data were fitted simultaneously to a 1:1 model by using BIAevaluation 3.2. All the experiments were done at 25° C.

For experiment [3], the target named is T3, biotinylated HLA-A2/WT1126 (…) monomer. The experiment is described as follows: SPR Biacore T100; biotinylated pMHC captured, antibody injected; 1:1 fit.
Description: as §1
Experiment [4] addresses HLA-A2/WT1 235-243 (…) complex (human, biotin at a specific biotinylation site at the C-terminus). Description: ELISA on wells coated with the named HLA-A2/peptide monomer, HRP anti-Flag detection, OD 490 nm.
For experiment [5], the target named is HLA-A2/WT1 187-195 (…) complex (human, biotin at a specific biotinylation site at the C-terminus). The description is as above.

B1: Clone45 scFv (scFv)
scFv: EVQLLESGGGLVQPGGSLRLSCAASGFTFSSYAMSWVRQAPGKGLEWVSQIDPWGQETLYADSVKGRFTISRDNSKNTLYLQMNSLRAEDTAVYYCAKLTGRFDYWGQGTLVTVSSGGGGSGGGGSGGGGSTDIQMTQSPSSLSASVGDRVTITCRASQSISSYLNWYQQKPGKAPKLLIYSASQLQSGVPSRFSGSGSGTDFTLTISSLQPEDFATYYCQQGPGTPNTFGQGTKVEIKRA
notes: also called scFv Clone45; parental Clone45
B1: the binding result (in the experiment with HLA-A2/CDR2 (…) tetramer; in experiment [1]; in experiment [4]; in experiment [5]) was “no binding” each time. In addition, the equilibrium dissociation constant (Kd) in experiment [2] stood at 300 nM; in experiment [3] it was 263 nM.
